Test results from patent US4287300A, “Charge effects in enzyme immunoassays” (priority 1979, dated 1981).

System: β-galactosidase
Experiment: β-galactosidase activity assay with ONPG substrate
Type: biochemical
Settings: after dithioerythritol treatment and Biogel A5M chromatography
Protocol: C. To 1.8 ml of a 35.3 mg/ml solution of the antiHIgG was added 60 μl (10 mg/ml DMF) of m-maleimidobenzoic acid NHS ester and the mixture allowed to stand at room temperature for 30 min, followed by the addition of 0.18 ml of 1 M sodium acetate, pH 5. The reaction mixture was then dialyzed 2×500 ml (degassed) 20 mM sodium acetate, pH 5, 0.15 M NaCl for 1 hr at room temperature. To a solution of 5 ml of β-galactosidase (1.47 mg/ml) was added 0.2 ml of 0.5 M phosphate, pH 7, followed by 2 ml of the above reaction product at a concentration of 31.1 mg/ml and the mixture incubated at room temperature for 4 hrs. The reaction was terminated by the addition of 0.2 ml of 10 mM cysteine-HCl and incubating for 0.5 hr to yield a final volume of 7.4 ml. […] Fractions 24 to 33 were collected to provide a volume of 50 ml with an optical density at 280 nm of 0.540 and a molar ratio of antibody to enzyme of about 5:1. […] Assaying for the enzyme employed a 10 μl fraction dissolved in 0.5 ml PBS, N3, Mg, RSA combined with 0.1 ml 20 mM ONPG in 0.4 ml buffer and measuring the rate at 37° at 420 nm for the interval between 10 to 20 secs after addition of the substrate.
D. The above procedure was repeated as follows. […] The assays were performed at 37° C., reading at 420 nm employing an assay solution of 10 μl of the conjugate, 0.9 ml PBS, N3, Mg, RSA and 0.1 ml of substrate (20 mM ONPG).

“β-galactosidase: β-galactosidase (Boehringer 150797), treated with dithioerythritol and chromatographed on Biogel A5M” was tested, and the enzyme activity was 477 u/mg of protein.
